Results on six variants are retold here after the FLAb antibody collection (doi:10.7554/elife.23156).

A value given as a limit tells only on which side of the number the result lay.

B1: scFv; the commonest letter at each place (parent)
chain 1: EVKLDETGGGLVQPGRPMKLSCVASGFTFSDYWMNWVRQSPEKGLEWVAQIRNKPYNYETYYSDSVKGRFTISRDDSKSSVYLQMNNLRVEDMGIYYCTGSYYGMDYWGQGTSVTVS
chain 2: DVVMTQTPLSLPVSLGDQASISCRSSQSLVHSNGNTYLRWYLQKPGQSPKVLIYKVSNRFSGVPDRFSGSGSGTDFTLKISRVEAEDLGVYFCSQSTHVPWTFGGGTKLEIK

The variants in data set [1] derive from B1. Briefly: Kd (Tite-Seq). The following applies: with fluorescein; format: scFv 4-4-20, heavy + light.
The variants in data set [2] derive from B1. Briefly: yeast surface expression (ratio to wild type); higher = more expressed. Conditions: format: scFv 4-4-20, heavy + light.

Turning to chain 1 EVKLDETGGGLVQPGRPMKLSCVASGFTFPSYWMPWVRQSPEKGLEWVAQIRNKPYNYETYYSDSVKGRFTISRDDSKSSVYLQMNNLRVEDMGIYYCTGSYYGMDYWGQGTSVTVS chain 2 DVVMTQTPLSLPVSLGDQASISCRSSQSLVHSNGNTYLRWYLQKPGQSPKVLIYKVSNRFSGVPDRFSGSGSGTDFTLKISRVEAEDLGVYFCSQSTHVPWTFGGGTKLEIK [chain 1 S30P D31S N35P], in data set [1], the Kd is ≥ 10 µM. Also, the yeast surface expression in data set [2] amounted to 0.757.
For chain 1 EVKLDETGGGLVQPGRPMKLSCVASGFTFKDYWMNEVRQSPEKGLEWVAQIRNKPYNYETYYSDSVKGRFTISRDDSKSSVYLQMNNLRVEDMGIYYCTGSYYGMDYWGQGTSVTVS chain 2 DVVMTQTPLSLPVSLGDQASISCRSSQSLVHSNGNTYLRWYLQKPGQSPKVLIYKVSNRFSGVPDRFSGSGSGTDFTLKISRVEAEDLGVYFCSQSTHVPWTFGGGTKLEIK [chain 1 S30K W36E] the same measures were ≥ 10 µM and 1.31.
Turning to chain 1 EVKLDETGGGLVQPGRPMKLSCVASGFTFSDYWMNKHRQSPEKGLEWVAQIRNKPYNYETYYSDSVKGRFTISRDDSKSSVYLQMNNLRVEDMGIYYCTGSYYGMDYWGQGTSVTVS chain 2 DVVMTQTPLSLPVSLGDQASISCRSSQSLVHSNGNTYLRWYLQKPGQSPKVLIYKVSNRFSGVPDRFSGSGSGTDFTLKISRVEAEDLGVYFCSQSTHVPWTFGGGTKLEIK [chain 1 W36K V37H], the dissociation constant Kd in data set [1] is ≥ 10 µM. In addition, the yeast surface expression in data set [2] is 0.773.
With chain 1 EVKLDETGGGLVQPGRPMKLSCVASGFTFSDYWMNWVRQSPEKGLEWVAQIRNKPYNYETYYSDSVKGRFTISRDDSKSSVYLQMNNLRVEDMGIYYCTGSYYGMWYFGQGTSVTVS chain 2 DVVMTQTPLSLPVSLGDQASISCRSSQSLVHSNGNTYLRWYLQKPGQSPKVLIYKVSNRFSGVPDRFSGSGSGTDFTLKISRVEAEDLGVYFCSQSTHVPWTFGGGTKLEIK [chain 1 D106W W108F], the Kd in data set [1] is ≥ 10 µM. For the same variant, the yeast surface expression in data set [2] stood at 0.225.
As to chain 1 EVKLDETGGGLVQPGRPMKLSCVASGFTQSDESMNWVRQSPEKGLEWVAQIRNKPYNYETYYSDSVKGRFTISRDDSKSSVYLQMNNLRVEDMGIYYCTGSYYGMDYWGQGTSVTVS chain 2 DVVMTQTPLSLPVSLGDQASISCRSSQSLVHSNGNTYLRWYLQKPGQSPKVLIYKVSNRFSGVPDRFSGSGSGTDFTLKISRVEAEDLGVYFCSQSTHVPWTFGGGTKLEIK [chain 1 F29Q Y32E W33S], the Kd in data set [1] is ≥ 10 µM. Also, the yeast surface expression in data set [2] was determined as 0.761.
In the case of chain 1 EVKLDETGGGLVQPGRPMKLSCVASGFTFSDYWMNWVRQSPEKGLEWVAQIRNKPYNYETYYSDSVKGRFTISRDDSKSSVYLQMNNLRVEDMGIYYCTYPYYGMDYWGQGTSVTVS chain 2 DVVMTQTPLSLPVSLGDQASISCRSSQSLVHSNGNTYLRWYLQKPGQSPKVLIYKVSNRFSGVPDRFSGSGSGTDFTLKISRVEAEDLGVYFCSQSTHVPWTFGGGTKLEIK [chain 1 G100Y S101P], the Kd in data set [1] is ≥ 10 µM. Further, the yeast surface expression in data set [2] amounted to 0.251.

A word on the Kd: it is the equilibrium constant for the complex coming apart.
